Test results as given in the supplement of paper PMC10126150.
± gives the standard deviation of the averaged measurements.

The sequences below were run on ATP (assay: switch fluorescence ratio, 500 uM ATP over buffer (Cy3 cluster intensity, sum of 5 cycles each) (fold (ratio)); higher = stronger signal-on switching upon ATP binding; sequences stand for … in TCGTCGGCAGCGTCAGATGTGTATAAGAGACAGTTTTTTTTTTTTTTTTTTTTTTTTT…TC). Conditions: aptamer strand: ATP DNA aptamer (quencher-CACCTGGGGGAGTATTGCGGAGGAAGG + anchor), 100 nM annealed; ATP concentration: 500 uM.
In short: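 Clusters with intensities outside 100-1000 RFU were excluded. The remaining Cy3-labelled switching-strand clusters on a modified Illumina MiSeq flow-cell had been annealed to 100 nM quencher-labelled ATP aptamer and imaged in selection buffer, then after 15 min with 500 uM ATP at 22 °C, for five cycles separated by NaOH stripping and re-annealing. The fluorescence ratio, averaged per switch-domain sequence, is each cluster's summed target-cycle Cy3 intensity over its summed buffer-cycle Cy3 intensity.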
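Also: ATP exposure 15 min at 22 °C before imaging.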

In order of rising switch fluorescence ratio:
1. CACTTGGAGC  0.944 ± 0.059
2. CAGGATTAAA  0.959 ± 0.029
3. CAGCGGGCGT  0.963 ± 0.01
4. CAGGGTCGGG  0.966 ± 0.035
5. CACTCTCTGA  0.969 ± 0.045
6. CAGGACTTGT  0.969 ± 0.02
7. CAGAGGAGTG  0.9738 ± 0.0038
8. CACTCGAGTC  0.978 ± 0.011
9. CAGGCTCTTT  0.978 ± 0.036
10. CACTATTAGT  0.979 ± 0.01
11. CAGGGCGGGG  0.979 ± 0.037
12. CAGATTTTGA  0.9804 ± 0.0045
13. CAGGGATGGA  0.981 ± 0.013
14. CAGATTGAAT  0.982 ± 0.024
15. CAGGGGGTCA  0.982 ± 0.015
16. CAGCTCTGTT  0.984 ± 0.041
17. CAGGATGTAT  0.9852 ± 0.0029
18. CACTGTGTGG  0.987 ± 0.042
19. CACTTATGTG  0.99 ± 0.038
20. CAGCCTATGG  0.991 ± 0.05
21. CAGGGGTACG  0.991 ± 0.042
22. CAGGGTGAAT  0.9909 ± 0.0056
23. CAGATTTGTT  0.992 ± 0.018
24. CAGGGGCGTG  0.9921 ± 0.0079
25. CAGCTTTTGG  0.993 ± 0.039
26. CAGGGGAAAT  0.993 ± 0.029
27. CAGCGCCGGG  0.994 ± 0.017
28. CAGGCCTCTT  0.9943 ± 0.0035
29. CAGAGATTTA  0.995 ± 0.024
30. CAGCTGGCGC  0.9949 ± 0.0083
31. CAGAGATTAG  0.996 ± 0.043
32. CAGGAAGGGA  0.9958 ± 0.0064
33. CAGGGGTGTG  0.996 ± 0.0076
34. CAGGAGACTA  0.9979 ± 0.0094
35. CACTTGTGAC  1 ± 0.016
36. CAGAATTAA  1 ± 0.037
37. CAGCTCTAAG  1 ± 0.013
38. CAGGAAGGGG  1 ± 0.032
39. CAGGACTTTT  1 ± 0.0083
40. CAGGATAACT  1 ± 0.027
41. CAGGCGTTAG  1 ± 0.064
42. CAGGGAAAGA  1 ± 0.011
43. CAGGGGGGAC  1 ± 0.022
44. CAGGGTAGAG  1 ± 0.043
45. CACTAGTTTT  1.01 ± 0.012
46. CACTTAGGCT  1.01 ± 0.011
47. CAGAGGGGGC  1.012 ± 0.0071
48. CAGATAAGTG  1.01 ± 0.068
49. CAGCCTGCGG  1.01 ± 0.029
50. CAGCTTGTTT  1.01 ± 0.02
51. CAGGAGGGAG  1.01 ± 0.011
52. CAGGGAAGGG  1.01 ± 0.049
53. CAGGGCTATG  1.01 ± 0.016
54. CAGGGCTTAG  1.01 ± 0.035
55. CAGGGTGAGT  1.01 ± 0.022
56. CACTATGGGA  1.02 ± 0.027
57. CACTGGGGGC  1.02 ± 0.036
58. CAGAGGAAGT  1.02 ± 0.04
59. CAGAGGGAGG  1.02 ± 0.033
60. CAGCATAAAG  1.02 ± 0.057
61. CAGCTAAAGG  1.02 ± 0.03
62. CAGCTTGGGG  1.019 ± 0.0089
63. CAGGAAATTG  1.02 ± 0.052
64. CAGGATTGTT  1.02 ± 0.04
65. CAGGCCTGAC  1.02 ± 0.061
66. CAGGGCAGCG  1.02 ± 0.04
67. CACTAGAGGT  1.03 ± 0.06
68. CAGAAAAGCA  1.03 ± 0.017
69. CAGAGTGGGA  1.03 ± 0.016
70. CAGCGGGACC  1.03 ± 0.025
71. CAGCTACGTG  1.0258 ± 0.00037
72. CAGCTTTAAT  1.03 ± 0.02
73. CAGGGGGATT  1.03 ± 0.042
74. CAGGGTGGGG  1.03 ± 0.048
75. CACTCAGGGA  1.04 ± 0.046
76. CACTCATTGG  1.039 ± 0.008
77. CACTGGAGAA  1.044 ± 0.0051
78. CAGAGGGGGA  1.04 ± 0.036
79. CAGATACAAG  1.036 ± 0.0095
80. CAGCTATCTT  1.039 ± 0.01
81. CAGGAAGCTG  1.04 ± 0.11
82. CAGGAGGGCA  1.042 ± 0.0049
83. CAGAAAAAAC  1.05 ± 0.035
84. CAGACGTCGA  1.05 ± 0.066
85. CAGGATGCGA  1.05 ± 0.016
86. CACTGGTGGC  1.06 ± 0.022
87. CAGATGTACC  1.08 ± 0.028
88. CAGCGCCATA  1.078 ± 0.0042
89. CAGCCCTAGG  1.09 ± 0.053
90. CAGACGGTTT  1.095 ± 0.0078
91. CACTGCGCGC  1.11 ± 0.017
92. CAGATAGGGG  1.12 ± 0.19
93. CACTTTCACA  1.17 ± 0.055
94. CACTCGGAAT  1.19 ± 0.03
95. CAGAAGCGGA  1.19 ± 0.051
96. CAGCATCATC  1.242 ± 0.011
97. CAGGGGTTTT  1.32 ± 0.54
98. CAGCTAGGTG  1.54 ± 0.029
99. CAGGGGCAAT  2.7 ± 0.12
100. CACTGGGCGA  3.28 ± 3.2
